In the experiment the target is N-terminally His6-tagged human PCNA (proliferating cell nuclear antigen) (human, UniProt P12004 1-261). Description: ITC.

This passage reports Kd results from paper PMC6881253 (2019).

Chain of N-terminally His6-tagged human PCNA (proliferating cell nuclear antigen) (P12004 whole entry): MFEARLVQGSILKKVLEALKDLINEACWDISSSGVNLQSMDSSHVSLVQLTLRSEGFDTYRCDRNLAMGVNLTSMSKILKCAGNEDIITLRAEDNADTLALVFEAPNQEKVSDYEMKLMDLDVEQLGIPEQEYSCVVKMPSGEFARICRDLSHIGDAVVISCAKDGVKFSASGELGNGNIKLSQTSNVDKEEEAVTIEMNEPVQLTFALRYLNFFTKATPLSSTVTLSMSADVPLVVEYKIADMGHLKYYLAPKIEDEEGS

B1: S1, mutant variant of p21^140–157 (Ac-SESSQTSMTDFYHSKRRL-NH2) (peptide)
chain: Ac-SESSQTSMTDFYHSKRRL-NH2
What is called Kd is the free concentration of one partner at which half of the binding sites on the other are occupied at equilibrium, for simple one-to-one binding. The low end stands for a tighter complex, the high end for a looser complex. Molecule B1 displayed a Kd of 8.3 µM.

B2: D1.2, mutant variant of p21^140–157 (Ac-SESSQTSMTDFYHSESSL-NH2) (peptide)
chain: Ac-SESSQTSMTDFYHSESSL-NH2
As for B2, the affinity, expressed as Kd, was 40 µM.

B3: S2, mutant variant of p21^140–157 (Ac-RKRRQTSMTDFYHSESSL-NH2) (peptide)
chain: Ac-RKRRQTSMTDFYHSESSL-NH2
Take B3: binding was characterised by a dissociation constant (Kd) of 0.3 µM.
